Reference: publication PMC8751750, “Effect of using different co-ligands during ^99mTc-labeling of J18 peptide on SK-MES-1 cell binding and tumor targeting” (Iranian Journal of Basic Medical Sciences, 2021)
“Also recorded” adds a separate entry of the source. Peptide text beside a SMILES is read from it.

Columns and labels:
[1] = Biodistribution in normal mice; type: in vivo; settings: normal female NMRI mice, i.v. 1 μg in 100 μl (18.5 MBq), mean±SD, n=4
Protocol: All animal investigations were approved by Mazandaran University of Medical Sciences Research and Ethical Committee in Sari, Iran. Twelve normal female NMRI mice (20–30 g) were randomly divided into three groups of four. 1 μg of (^99mTc) Tc –HYNIC–J18 peptide in 100 μl of buffer (18.5 MBq) was injected into the tail vein. All animals were sacrificed one, four, and twenty-four hours following radiolabeled peptide injection. Mice were euthanized with an appropriate dose of ketamine/xylazine (Sigma, USA) diluted with sterile water (1:3 v/v). Following deep anesthesia, blood was extracted by heart puncture with a 1-mL syringe washed with diluted heparin. Blood, liver, spleen, salivary gland, stomach, kidney, muscle, and bone samples were dissected and weighed, and radioactivity was measured. Except for the intestines, which were computed as a percentage of the injected dose per gram tissue (percent ID/g), the tissue uptake data was calculated as a percentage of the administered dose per total sample.

SK-MES-1 cells [2] = assay: Specific binding (blocking with unlabeled peptide) on SK-MES-1 cells; parameters: species or system human; settings: listed as 99mTc-peptide 2
Protocol: (§1) The in vitro receptor binding of the^ 99mTc-labeled peptide was evaluated using SK-MES-1 a human lung squamous cell carcinoma, SKOV-3 human ovarian carcinoma, and A-549 human lung adenocarcinoma epithelial and MCF-7 human breast cancer cell lines. All cell lines were kept at 37 °C in a 5% CO2 incubator and were maintained in Dulbecco’s DMEM-high glucose supplemented with 10% FBS. Cells were plated in 24-well plates at a density of 4×10^5 cells/well in 1 ml of complete medium and incubated for 24 hr to allow in cells to settle. Following a wash with cold serum-free media or PBS, 40 nM radiolabeled peptides in the full medium were given to the cells, which were then incubated at 37 °C for 2 hr. Finally, cells in culture plates were trypsinized and released, and radioactivity in the cells was measured. To determine specific versus nonspecific binding, SK-MES-1 cells were seeded into 12-well plates at a density of 5×10^5 cells/well and incubated with unlabeled peptides at a concentration 500-fold higher than the labeled peptide for 20 min at 37 °C, followed by the addition of the radiolabeled peptide to the wells. These cells were incubated for 2 hr at 37 °C in a humidified incubator.

SK-MES-1 tumors = assay: Biodistribution in SK-MES-1 xenografted nude mice; type: in vivo, female C57 nu/nu mice; settings: SK-MES-1 xenograft nude mice, mean ± SD, n=4
Protocol: (§2) The tumor biodistribution and targeting properties of the radiolabeled peptides were carried out in female C57 nu/nu mice bearing SK-MES-1 (Pasture Institute, North Branch and Amol, Iran). The tumor was grafted by subcutaneous injection of SK-MES-1 cells at a concentration of 4×10^6 cells/mouse into the right front flank of the mice and left to grow over a period of 20 days. The mice were ready for biodistribution when tumor size reached 0.7–1 cm^3 in mean diameter, all mice received intravenous co-injections of (^99mTc) Tc-HYNIC-(Ser)3-J18 peptide 1 or (^99mTc )Tc-HYNIC-(Ser)3-J18 peptide 2 (1 μg in 100 μl buffer) after 1, 2, and 4 hr post-injection, respectively (n=4 mice per group). In order to measure the radiopeptides’ nonspecific uptake of the radiopeptides, one group of four animals was injected with 300 μg of non-labeled peptide in a 50 μl buffer. The mice in the blocking group were euthanized 2 hr after the injection. Mice organ and tissue samples were collected, and radioactivity uptake was calculated as a percentage of the administered dose per gram tissue (%ID/g).

[3] = Biodistribution in SK-MES-1 xenografted nude mice; type: in vivo, female C57 nu/nu mice; settings: female, C57 nu/nu, mouse, in vivo, iv, total radioactivity, SK-MES-1 xenograft nude mice, n=4
Protocol: as §2

A-549 cells = settings: previously reported, listed as 99mTc-HYNIC-(Ser)3-J18 (tricine/EDDA); cited from earlier work
Text: Table 1 Overview of affinity binding ^99mTc-HYNIC-(Ser)3-J18 on SK-MES-1 vs A-549 cell line | column: A-549 / Tricine; A-549 / tricine/EDDA

SK-MES-1 cells [4] = assay: Saturation binding assay on SK-MES-1 cells; parameters: species or system human
Protocol: The affinities of (^99mTc) Tc-HYNIC-peptides were determined utilizing a saturation binding experiment with cultivated cells in vitro for determination of the dissociation constant as KD and the number of binding sites per cell (Bmax). SK-MES-1 cells were incubated for 2 hr at 37 °C with increasing concentrations of (^99mTc) Tc- HYNIC- peptides (0.1, 0.5, 1, 2.5, 5, 25, and 50 nM). One dish served as a blocking sample, and it was immersed in a blocking solution containing a 500-fold excess of the non-labeled peptide. For each concentration, three dishes were utilized. Following incubation, the media was withdrawn, and the cells were trypsinized and collected for Gamma counter activity measurement. Prism 5 software (Ver. 5.0) was used to examine the particular binding data using nonlinear regression.

[5] = system: SK-MES-1, A-549, SKOV-3 and MCF-7 cells; assay: In vitro receptor binding of radiolabeled peptides on four cell lines; parameters: species or system human; settings: 40 nM radiolabeled peptide, 2 hr at 37 °C
Protocol: as §1

In the case of `CC(C)C[C@H](NC(=O)[C@H](CO)NC(=O)[C@H](CCCNC(=N)N)NC(=O)[C@H](CO)NC(=O)[C@H](CO)NC(=O)[C@H](CO)NC(=O)c1ccc(NN)nc1)C(=O)N[C@@H](Cc1c[nH]c2ccccc12)C(=O)N[C@@H](CO)C(=O)N[C@@H](CC(=O)O)C(=O)N[C@@H](Cc1ccccc1)C(=O)N[C@@H](Cc1ccc(O)cc1)C(=O)N[C@@H](C)C(=O)N[C@@H](CO)C(=O)N[C@@H](C)C(=O)N[C@@H](CO)C(=O)N[C@@H](CCCNC(=N)N)C(=O)NCC(=O)N1CCC[C@H]1C(=O)O` [Peptide 2, (^99mTc) Tc-HYNIC-(Ser)3-J18 with tricine/EDDA, metal not drawn] (HELM PEPTIDE1{[NNc1ccc(C(=O)[*:2])cn1].S.S.S.R.S.L.W.S.D.F.Y.A.S.A.S.R.G.P}$$$$V2.0; C-terminus assumed), the “Intestine uptake (with contents)” value ([1]; 4 hr) is reported as 3.63±1.80 percentage of injected dose per whole sample, the “Intestine uptake (with contents)” value ([1]; 24 hr) is reported as 0.59±0.29 percentage of injected dose per whole sample and the “reduction of binding by pre-saturation with unlabeled J18 peptide” value (SK-MES-1 cells [2]; 500-fold unlabeled peptide 20 min at 37 °C, then radiolabeled peptide 2 hr at 37 °C) is reported as 7.5 fold. For the same molecule, the “specific binding to SK-MES-1, in words” value (SK-MES-1 cells [2]) was “high specificity”, the “Intestine uptake (with contents)” value (SK-MES-1 tumors; 1 hr, i.v. 1 μg in 100 μl) was 0.78±0.01 percentage of injected dose per whole sample and the “Intestine uptake (with contents)” value (SK-MES-1 tumors; 2h-blocked (300 μg non-labeled peptide 0.5 hr before), i.v. 1 μg) was 0.23±0.09 percentage of injected dose per whole sample. The “Intestine uptake (with contents)” value (SK-MES-1 tumors; 2 hr, i.v. 1 μg in 100 μl) was 0.53±0.11 percentage of injected dose per whole sample, the “Intestine uptake (with contents)” value (SK-MES-1 tumors; 4 hr, i.v. 1 μg in 100 μl) was 0.03±0.01 percentage of injected dose per whole sample and the tissue to tissue ratio at 2 h ([3]; 1 ug, 2 hr, read-out: Tumor/blood ratio) was 2.96. The tissue uptake at 2 h ([3]; 2h-blocked (300 μg non-labeled peptide 0.5 hr before), i.v. 1 μg, mean ± SD, read-out: Tumor uptake) was 0.43 ± 0.05 %ID/g, the Kd (A-549 cells) was 4.4 ± 0.8 nM and the Bmax (SK-MES-1 cells [4]; Figure 4, saturation binding, 2 hr at 37 °C, listed as 99mTc-(EDDA/tricine)-(Ser)3-HYNIC-J18) was “(1.9±0.3)·10^4 binding sites/cell”. For the same molecule, the “binding affinity for SK-MES-1, in words” value (SK-MES-1 cells [4]; listed as 99mTc-peptide 2) was “high binding affinity; also recorded: good receptor-binding affinity”, the Kd (SK-MES-1 cells [4]; saturation binding, 0.1-50 nM, 2 hr at 37 °C, blocking with 500-fold excess non-labeled peptide, three dishes per concentration, Prism 5 nonlinear regression, listed as 99mTc-HYNIC-(Ser)3-J18 (tricine/EDDA)) was 3.64 ± 0.8 nM and the “cellular affinity, in words” value [5] was “strongest cellular affinity for the SK-MES-1 cell line”.
